Substrate: C[C@@H](O)[C@H](N)C(=O)O
Experiment: purified protein
Assay type: biochemical, Saccharomyces cerevisiae
Conditions: 2.5 mM ATP, 2 mM PPi, 10 mM MgCl2, pH 7.5, 30 °C, no tRNA

B1: ScThrRS (Saccharomyces cerevisiae S288C) (protein)
chain: MSASEAGVTEQVKKLSVKDSSNDAVKPNKKENKKSKQQSLYLDPEPTFIEERIEMFDRLQKEYNDKVASMPRVPLKIVLKDGAVKEATSWETTPMDIAKGISKSLADRLCISKVNGQLWDLDRPFEGEANEEIKLELLDFESDEGKKVFWHSSAHVLGESCECHLGAHICLGPPTDDGFFYEMAVRDSMKDISESPERTVSQADFPGLEGVAKNVIKQKQKFERLVMSKEDLLKMFHYSKYKTYLVQTKVPDGGATTVYRCGKLIDLCVGPHIPHTGRIKAFKLLKNSSCYFLGDATNDSLQRVYGISFPDKKLMDAHLKFLAEASMRDHRKIGKEQELFLFNEMSPGSCFWLPHGTRIYNTLVDLLRTEYRKRGYEEVITPNMYNSKLWETSGHWANYKENMFTFEVEKETFGLKPMNCPGHCLMFKSRERSYRELPWRVADFGVIHRNEFSGALSGLTRVRRFQQDDAHIFCTHDQIESEIENIFNFLQYIYGVFGFEFKMELSTRPEKYVGKIETWDAAESKLESALKKWGGNWEINAGDGAFYGPKIDIMISDALRRWHQCATIQLDFQLPNRFELEFKSKDQDSESYERPVMIHRAILGSVERMTAILTEHFAGKWPFWLSPRQVLVVPVGVKYQGYAEDVRNKLHDAGFYADVDLTGNTLQKKVRNGQMLKYNFIFIVGEQEMNEKSVNIRNRDVMEQQGKNATVSVEEVLKQLRNLKDEKRGDNVLA
Km: 210 ± 20 µM
kcat: 1.72 ± 0.21 s⁻¹
kcat/Km: 8190 M⁻¹ s⁻¹
